Measurements published in patent publication US20180362994, “TRANSCRIPTION FACTORS THAT REGULATE NICOTINE BIOSYNTHESIS IN TOBACCO” (NORTH CAROLINA STATE UNIVERSITY, published 2018).

Molecular target: NtMYC2aΔN (C-terminal bHLH domain) (Nicotiana tabacum)
Assay: EMSA; 10 mM Tris, 50 mM KCl, 1 mM DTT, poly(dI-dC), room temperature; 500x cold probe reduced the signal
Settings: tags: GST fusion, cleaved with thrombin; label: 3' biotin
Method: EMSA was performed according to manual of the kit (LightShift,) Chemiluminescent EMSA Kit, Pierce). The binding buffer was 10 mM Tris, 50 mM KCl, 1 mM DTT, 0.05 μg/μl poly(di-dc), 0.05% NP-40, and 2.5% (v/v) glycerol. The probe was 20 fmol for each reaction. The cold probe and mutated probe were 10 pmol (500×) and the protein was 0.75 μg MYC2aΔN. The binding reaction was performed at room temperature for 20 min. The reaction mixture was separated on a 5% polyacrylamide gel and blotted on Hybond™-N⁺ membrane (Amersham, Piscataway, N.J., USA). UV crosslinker was used to crosslink the DNA to membrane. The membrane was probed and signal was detected according to the manual of kit (Chemiluminescent Nucleic Acid Detection Module Kit, Pierce). Kodak BioMax MS film (Carestream Health, Inc. Rochester, N.Y.) was exposed to record the signal.
Three G-boxes (G2, G3 and G4) were identified in the 0.6 kb NtQPT2 promoter (NCBI accession No. AJ748263), among which G2 box has the highest binding strength with NtMYC2b (Shoji and Hashimoto, 2011). To validate that NtMYC2a binds to G2-box. EMSA experiment was performed with probes of 38 bp consisting of a G2 box (CACGTT) and flanking regions from the NtQPT2 promoter and mutated probe with mutation in the G2 box sequence. We cloned the full length of NtMYC2a and expressed the recombinant protein (NtMYC2a fused with GST) in E. coli. […]

Chain of NtMYC2aΔN (C-terminal bHLH domain) (Nicotiana tabacum) (chain, as listed by the source mutant): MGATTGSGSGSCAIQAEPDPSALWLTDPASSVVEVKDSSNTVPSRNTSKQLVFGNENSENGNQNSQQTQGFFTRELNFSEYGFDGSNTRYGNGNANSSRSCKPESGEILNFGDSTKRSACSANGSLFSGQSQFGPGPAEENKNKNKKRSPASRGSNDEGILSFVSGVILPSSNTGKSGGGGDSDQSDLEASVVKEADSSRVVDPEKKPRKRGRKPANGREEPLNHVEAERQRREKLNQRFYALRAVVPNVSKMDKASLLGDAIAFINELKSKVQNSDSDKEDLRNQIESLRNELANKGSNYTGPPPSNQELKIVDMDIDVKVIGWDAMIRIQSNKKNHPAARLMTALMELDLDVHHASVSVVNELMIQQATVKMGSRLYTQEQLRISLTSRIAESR

B1: G2-box probe of NtQPT2 promoter (dsDNA)
DNA 1: AGTAGCTGAACACGTTTTATTTATGGTTGTTGAATAGT
DNA 2: ACTATTCAACAACCATAAATAAAACGTGTTCAGCTACT
  binding result: binds
